Measured values as given in publication PMC9190010, “Giardia intestinalis thymidine kinase is a high-affinity enzyme crucial for DNA synthesis and an exploitable target for drug discovery” (The Journal of Biological Chemistry, 2022).

What was measured:
[1] = target: T1, G. intestinalis thymidine kinase (TK) (Giardia duodenalis, UniProt A8BRU1); assay: radiometric [[…]'-3H]thymidine phosphorylation, DE81 / Hybond-XL filter assay; type: biochemical
T1 construct: gene GL50803_008364; full length, 392 residues, 42 kDa, monomer (mass photometry); expressed in E. coli BL21(DE3)pLysS from pET-Z as His6-Z fusion, tag removed with TEV protease; two TK1-like domains (1-210 active, 211-392 degenerate)
T1 sequence (A8BRU1 1-392): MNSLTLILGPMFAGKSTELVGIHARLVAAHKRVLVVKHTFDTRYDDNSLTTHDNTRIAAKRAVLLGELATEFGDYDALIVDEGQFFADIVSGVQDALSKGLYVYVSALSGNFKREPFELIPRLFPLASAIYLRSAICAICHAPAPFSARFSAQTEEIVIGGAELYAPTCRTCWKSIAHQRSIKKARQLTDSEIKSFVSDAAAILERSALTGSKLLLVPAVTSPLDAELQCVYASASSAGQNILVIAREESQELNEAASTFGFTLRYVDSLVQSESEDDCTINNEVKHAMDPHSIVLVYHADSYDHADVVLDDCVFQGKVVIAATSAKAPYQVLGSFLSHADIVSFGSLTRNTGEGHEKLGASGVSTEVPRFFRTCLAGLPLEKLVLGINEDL

[2] = target: T1, G. intestinalis thymidine kinase (TK); assay: thymidine kinase assay (phosphorylation of the nucleoside); type: biochemical; conditions: 2 mM ATP, 5 mM MgCl2, 0.5 mM DTT, 100 mM potassium acetate, 50 mM Tris-HCl pH 7.5, 37 °C
From the text: (§1) thymidine kinase assay (phosphorylation of the nucleoside) on G. intestinalis thymidine kinase (TK)

[3] = substrate: Nc1ccn([C@@H]2O[C@H](COP(=O)(O)OP(=O)(O)OP(=O)(O)O)[C@@H](O)[C@H]2O)c(=O)n1; assay: purified protein; type: biochemical, Giardia duodenalis; conditions: phosphate donor varied, 1 μM thymidine, 10 mM MgCl2, pH 7.5, 37 °C
[4] = substrate: Nc1nc2c(ncn2[C@@H]2O[C@H](COP(=O)(O)OP(=O)(O)OP(=O)(O)O)[C@@H](O)[C@H]2O)c(=O)[nH]1; assay: purified protein; type: biochemical, Giardia duodenalis; conditions: phosphate donor varied, 1 μM thymidine, 10 mM MgCl2, pH 7.5, 37 °C
[5] = substrate: Nc1ncnc2c1ncn2[C@@H]1O[C@H](COP(=O)(O)OP(=O)(O)OP(=O)(O)O)[C@@H](O)[C@H]1O; assay: purified protein; type: biochemical, Giardia duodenalis; conditions: phosphate donor varied, 1 μM thymidine, 10 mM MgCl2, pH 7.5, 37 °C
[6] = substrate: O=c1ccn([C@@H]2O[C@H](COP(=O)(O)OP(=O)(O)OP(=O)(O)O)[C@@H](O)[C@H]2O)c(=O)[nH]1; assay: purified protein; type: biochemical, Giardia duodenalis; conditions: phosphate donor varied, 1 μM thymidine, 10 mM MgCl2, pH 7.5, 37 °C
[7] = substrate: Cc1cn([C@@H]2O[C@H](CO)[C@@H](O)[C@@H]2O)c(=O)[nH]c1=O; assay: thymidine kinase assay (phosphorylation of the nucleoside); type: biochemical, Giardia duodenalis; conditions: 2 mM ATP, 5 mM MgCl2, 0.5 mM DTT, 100 mM potassium acetate, 50 mM Tris-HCl pH 7.5, 37 °C
From the text: as §1

[8] = substrate: Cc1cn([C@H]2C=C[C@@H](CO)O2)c(=O)[nH]c1=O; assay: as above; type: biochemical, Giardia duodenalis; conditions: 2 mM ATP, 5 mM MgCl2, 0.5 mM DTT, 100 mM potassium acetate, 50 mM Tris-HCl pH 7.5, 37 °C
From the text: as §1

[9] = substrate: O=c1ccn([C@H]2C[C@H](O)[C@@H](CO)O2)c(=O)[nH]1; assay: as above; type: biochemical, Giardia duodenalis; conditions: 2 mM ATP, 5 mM MgCl2, 0.5 mM DTT, 100 mM potassium acetate, 50 mM Tris-HCl pH 7.5, 37 °C
From the text: as §1

Cc1cn([C@H]2C[C@H](O)[C@@H](COP(=O)(O)OP(=O)(O)OP(=O)(O)O)O2)c(=O)[nH]c1=O [dTTP]
IC50 [1]: 30 ± 3 µM

Cc1cn([C@H]2C[C@H](N=[N+]=[N-])[C@@H](CO)O2)c(=O)[nH]c1=O [AZT]
Km (μM) [2]: 0.044 ± 0.002 (12%) μM

B1: G. intestinalis thymidine kinase (TK) (Giardia lamblia ATCC 50803) (protein)
chain: T1 sequence (A8BRU1 1-392)
notes: full length, 392 residues, 42 kDa, monomer (mass photometry); expressed in E. coli BL21(DE3)pLysS from pET-Z as His6-Z fusion, tag removed with TEV protease; two TK1-like domains (1-210 active, 211-392 degenerate)
Km [3]: 2396 ± 199 µM
Vmax [3]: 1.7 µmol/min
kcat [3]: 1.19 s⁻¹
kcat/Km [3]: 500 M⁻¹ s⁻¹
Km [4]: 1303 ± 78 µM
Vmax [4]: 2.41 µmol/min
kcat [4]: 1.69 s⁻¹
kcat/Km [4]: 1300 M⁻¹ s⁻¹
Km [5]: 467 ± 29 µM
Vmax [5]: 0.93 µmol/min
kcat [5]: 0.65 s⁻¹
kcat/Km [5]: 1400 M⁻¹ s⁻¹
Km [6]: 1927 ± 269 µM
Vmax [6]: 1.66 µmol/min
kcat [6]: 1.16 s⁻¹
kcat/Km [6]: 600 M⁻¹ s⁻¹
Km [7]: 425 ± 47 µM
Vmax [7]: 0.68 µmol/min
kcat [7]: 0.48 s⁻¹
kcat/Km [7]: 1100 M⁻¹ s⁻¹
Km [8]: 39 ± 13 µM
Vmax [8]: 0.25 µmol/min
kcat [8]: 0.17 s⁻¹
kcat/Km [8]: 4500 M⁻¹ s⁻¹
Km [9]: 5.3 ± 1.3 µM
Vmax [9]: 1.02 µmol/min
kcat [9]: 0.67 s⁻¹
kcat/Km [9]: 134000 M⁻¹ s⁻¹
